The supplement of paper PMC7125110
± gives the standard error. For part of these data: Variants at the floor of the assay were thinned out.

B1: glmS ribozyme (parent)
chain: AUAAAAGCGCCAGAACUACAGAAAUGUAGUUGACGAGGAGGAGGUUUAUCGAAUUUUCGGCGGAUGCCUCCAAA

Assays:
Conditions in all cases: with glucosamine-6-phosphate
glucosamine-6-phosphate [1] = variants of: B1; test: kcat; higher = faster cleavage; RNA array
How it was run: (§1)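 A hybridised Cy3 probe tracked barcoded ribozyme variants, transcribed in situ by E. coli RNA polymerase on sequenced MiSeq chips, at 37 °C. The variants received 40 μM to 10 mM glucosamine-6-phosphate in HEPES/KCl/Mg(OAc)2 buffer. kobs came from decay fits and kcat and KM from weighted Michaelis–Menten fits.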

glucosamine-6-phosphate [2] = variants of: B1; test: KM; higher = weaker cofactor use; RNA array
How it was run: as §1

glucosamine-6-phosphate [3] = variants of: B1; test: self-cleavage kobs at 640 uM GlcN6P; higher = faster cleavage; RNA array
How it was run: as §1

glucosamine-6-phosphate [4] = variants of: B1; test: self-cleavage kobs at 2500 uM GlcN6P; higher = faster cleavage; RNA array
How it was run: as §1

glucosamine-6-phosphate [5] = variants of: B1; test: self-cleavage kobs at 10000 uM GlcN6P; higher = faster cleavage; RNA array
How it was run: as §1

glucosamine-6-phosphate [6] = variants of: B1; test: self-cleavage kobs at 40 uM GlcN6P; higher = faster cleavage; RNA array
How it was run: as §1

glucosamine-6-phosphate [7] = variants of: B1; test: self-cleavage kobs at 160 uM GlcN6P; higher = faster cleavage; RNA array
How it was run: as §1

Variant | kcat (glucosamine-6-phosphate [1]) [s⁻¹] | KM (glucosamine-6-phosphate [2]) [µM] | self-cleavage kobs at 640 uM GlcN6P (glucosamine-6-phosphate [3]) [s⁻¹] | self-cleavage kobs at 2500 uM GlcN6P (glucosamine-6-phosphate [4]) [s⁻¹] | self-cleavage kobs at 10000 uM GlcN6P (glucosamine-6-phosphate [5]) [s⁻¹] | self-cleavage kobs at 40 uM GlcN6P (glucosamine-6-phosphate [6]) [s⁻¹] | self-cleavage kobs at 160 uM GlcN6P (glucosamine-6-phosphate [7]) [s⁻¹]
A12G U65G | 0.000107 ± 1.4e-05 | 2380 ± 960 | 3.32e-05 ± 9e-06 | 4.72e-05 ± 8.3e-06 | 8.79e-05 ± 7.1e-06 | – | –
C16A U45G | 0.000271 ± 2.9e-06 | 2200 ± 54 | 6.15e-05 ± 1.2e-05 | 0.000144 ± 3.4e-05 | 0.000222 ± 2.7e-05 | – | –
G59U U65G | < 1e-05 | – | < 1e-05 | – | – | – | –
C16G U30C | 0.000111 ± 8.3e-06 | 763 ± 200 | 5.29e-05 ± 9.6e-06 | 7.58e-05 ± 1.2e-05 | 0.000109 ± 1.3e-05 | – | –
G40C G41U | 8.06e-05 ± 2.1e-05 | – | – | 8.04e-05 ± 1.1e-05 | 6.61e-05 ± 7.9e-06 | – | –
C34A A36C U45A | < 1e-05 | – | – | – | – | < 1e-05 | < 1e-05
C16G C71G | 0.000131 ± 1.2e-05 | 303 ± 130 | 8e-05 ± 1.3e-05 | 0.000114 ± 1.3e-05 | 0.00014 ± 1.8e-05 | – | 6.73e-05 ± 2.1e-05
U30C C61G | 1.42e-05 ± 1.3e-06 | – | – | – | – | – | –
G38A A52C | 1.04e-05 ± 2.3e-07 | 129 ± 16 | < 1e-05 | – | < 1e-05 | – | –
C16A U47G | 0.000198 ± 3e-05 | 631 ± 230 | 9.31e-05 ± 7.8e-06 | 0.000184 ± 2.7e-05 | 0.000186 ± 2.3e-05 | – | 6.15e-05 ± 1.2e-05
G13A U30G | 0.000441 ± 4.8e-05 | 6050 ± 1100 | 3.9e-05 ± 1e-05 | 0.000144 ± 3.3e-05 | 0.000271 ± 3.9e-05 | – | –
U31C G41A | 9.11e-05 ± 9.7e-06 | – | 6.76e-05 ± 1.5e-05 | 9.23e-05 ± 1.6e-05 | 8.13e-05 ± 1.2e-05 | – | –
A14U U45A | 0.0137 ± 0.0043 | 1480 ± 610 | 0.00404 ± 0.00082 | 0.00683 ± 0.0026 | 0.0148 ± 0.004 | 0.000446 ± 7.7e-05 | 0.00102 ± 0.00029
A14C U65G C70U | 0.0014 ± 0.00044 | – | 0.000315 ± 6.8e-05 | 0.000467 ± 6.2e-05 | 0.00104 ± 0.00015 | – | 4.59e-05 ± 1.6e-05
G32C U56G | 5.69e-05 ± 1.6e-06 | 663 ± 110 | 2.63e-05 ± 1.3e-05 | 4.76e-05 ± 1.1e-05 | 5.27e-05 ± 7.2e-06 | < 1e-05 | –
C16G U57A C68U | 4.17e-05 ± 9.1e-06 | – | – | 5.4e-05 ± 2.1e-05 | – | – | –
U45C U56G | 0.00225 ± 0.00059 | 4840 ± 1800 | 0.000335 ± 4.1e-05 | 0.000677 ± 0.00011 | 0.00156 ± 0.00019 | – | 5.85e-05 ± 1.2e-05
